Measurements as given in PMC4788496 (Chemistry & biology, 2015).

Target: the molecule itself
Experiment: SEC

B1: apoNC1 (heme-free DGCR8 construct NC1, a.a. 276-751) (domain or fragment, human, UniProt Q8WYQ5 276-751, looked up)
chain: DGETSVQPMMTKIKTVLKSRGRPPTEPLPDGWIMTFHNSGVPVYLHRESRVVTWSRPYFLGTGSIRKHDPPLSSIPCLHYKKMKDNEEREQSSDLTPSGDVSPVKPLSRSAELEFPLDEPDSMGADPGPPDEKDPLGAEAAPGALGQVKAKVEVCKDESVDLEEFRSYLEKRFDFEQVTVKKFRTWAERRQFNREMKRKQAESERPILPANQKLITLSVQDAPTKKEFVINPNGKSEVCILHEYMQRVLKVRPVYNFFECENPSEPFGASVTIDGVTYGSGTASSKKLAKNKAARATLEILIPDFVKQTSEEKPKDSEELEYFNHISIEDSRVYELTSKAGLLSPYQILHECLKRNHGMGDTSIKFEVVPGKNQKSEYVMACGKHTVRGWCKNKRVGKQLASQKILQLLHPHVKNWGSLLRMYGRESSKMVKQETSDKSVIELQQYAKKNKPNLHILSKLQEEMKRLAEEREETRK
Does B1 bind?
Result: binds
